The assay concerns the target AaRseP(WT)-His8 (Aquifex aeolicus RseP, wild type) (Aquifex aeolicus, UniProt O67776). The assay can be described thus: cryo-EM structure.

B1: 4A9 Fab (Fab of the anti-AaRseP mouse monoclonal antibody 4A9), with PA tag (Fab, V domains shown)
VH: EVKLVESGGGLVQPGGSLRLSCVTSGFTFTDYYMSWVRQPPGKALEWLAFIRNKVNGYTTEYRASVKGRFTISRDSSQSILYLQVNTLRAEDSATYYCARDRGGNGVYFDYWGQGTTLTVSS
VL: DIVMTQSHKFMSTSVGDRVSITCKASQDVGTDVAWYQQKPGQSPKLLIYWASIRHTGVPDRFTGSGSGTDFTLTISNVQSEDLADYFCQQYSSYPLTFGAGTKLELE
Regarding B1, the binding result is given as “binds”.

Source of the values: paper PMC11864173 (Science Advances, 2025).
